Data reported in US20200157212A1 (Pfizer, published 2020).

Key:
[1] = biological target: T1, Terbium (Tb) labeled-SNAP tagged ROBO2 expressed on HEK293 cells (Homo sapiens (Human), UniProt Q9HCK4 22-1378, terbium label on the SNAP tag); test: HTRF, 5 nM d2-SLIT2-N on Tb-SNAP-ROBO2 HEK293 cells, 1 nM antibody
T1 construct: also called Tb-labeled ROBO2 cells; ROBO2 expressing cells; not shown: SNAP tag
T1 sequence: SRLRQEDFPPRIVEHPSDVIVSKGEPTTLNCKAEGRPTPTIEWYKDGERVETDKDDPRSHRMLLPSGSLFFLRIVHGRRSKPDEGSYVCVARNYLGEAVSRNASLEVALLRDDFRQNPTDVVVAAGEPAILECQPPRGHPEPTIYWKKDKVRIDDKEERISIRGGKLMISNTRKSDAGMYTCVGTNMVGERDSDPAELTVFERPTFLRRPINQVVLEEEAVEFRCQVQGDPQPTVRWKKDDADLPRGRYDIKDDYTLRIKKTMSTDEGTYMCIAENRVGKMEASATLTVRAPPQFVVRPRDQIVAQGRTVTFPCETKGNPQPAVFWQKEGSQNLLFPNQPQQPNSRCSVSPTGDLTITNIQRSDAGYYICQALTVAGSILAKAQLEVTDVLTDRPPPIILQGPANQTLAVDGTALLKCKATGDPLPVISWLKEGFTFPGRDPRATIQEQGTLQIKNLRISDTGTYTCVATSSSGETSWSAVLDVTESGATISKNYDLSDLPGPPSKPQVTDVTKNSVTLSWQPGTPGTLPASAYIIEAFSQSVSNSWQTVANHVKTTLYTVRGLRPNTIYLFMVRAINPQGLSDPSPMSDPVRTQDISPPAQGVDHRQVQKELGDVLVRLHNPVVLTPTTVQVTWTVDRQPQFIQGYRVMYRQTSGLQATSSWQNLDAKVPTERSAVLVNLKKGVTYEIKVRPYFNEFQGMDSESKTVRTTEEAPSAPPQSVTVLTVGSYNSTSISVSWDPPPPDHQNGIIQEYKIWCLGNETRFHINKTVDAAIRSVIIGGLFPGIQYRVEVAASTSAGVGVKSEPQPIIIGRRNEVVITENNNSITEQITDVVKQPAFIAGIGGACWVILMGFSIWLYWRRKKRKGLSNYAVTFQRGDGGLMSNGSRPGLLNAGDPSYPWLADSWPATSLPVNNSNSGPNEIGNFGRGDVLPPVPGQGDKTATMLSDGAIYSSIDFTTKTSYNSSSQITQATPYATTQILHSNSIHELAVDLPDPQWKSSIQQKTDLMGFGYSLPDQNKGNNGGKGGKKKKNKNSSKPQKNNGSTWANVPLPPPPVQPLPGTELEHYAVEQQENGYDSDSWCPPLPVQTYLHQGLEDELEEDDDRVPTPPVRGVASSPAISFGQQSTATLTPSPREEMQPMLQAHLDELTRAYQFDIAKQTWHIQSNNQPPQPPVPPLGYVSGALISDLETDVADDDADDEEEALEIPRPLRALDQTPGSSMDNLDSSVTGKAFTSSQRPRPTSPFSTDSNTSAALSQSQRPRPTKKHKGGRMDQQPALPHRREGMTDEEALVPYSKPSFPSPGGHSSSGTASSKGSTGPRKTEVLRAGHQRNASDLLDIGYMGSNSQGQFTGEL
Summary of the method: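 Tb-SNAP-ROBO2 HEK293 cells incubated 1 hour with 5 nM d2-SLIT2-N, with 1 nM anti-ROBO2 antibody or none (maximal signal); cells alone gave minimum. HTRF read at 665/620 nm; IC50 series used 11-point, 5-fold dilutions from 1500 nM.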

[2] = biological target: T2, Human ROBO2 overexpressed on HEK293 cells (human, UniProt Q9HCK4 22-1378); test: flow cytometry on HEK293 cells overexpressing human ROBO2; N.B. = No binding to ROBO2
T2 construct: also called ROBO2 cells; native ROBO2
T2 sequence: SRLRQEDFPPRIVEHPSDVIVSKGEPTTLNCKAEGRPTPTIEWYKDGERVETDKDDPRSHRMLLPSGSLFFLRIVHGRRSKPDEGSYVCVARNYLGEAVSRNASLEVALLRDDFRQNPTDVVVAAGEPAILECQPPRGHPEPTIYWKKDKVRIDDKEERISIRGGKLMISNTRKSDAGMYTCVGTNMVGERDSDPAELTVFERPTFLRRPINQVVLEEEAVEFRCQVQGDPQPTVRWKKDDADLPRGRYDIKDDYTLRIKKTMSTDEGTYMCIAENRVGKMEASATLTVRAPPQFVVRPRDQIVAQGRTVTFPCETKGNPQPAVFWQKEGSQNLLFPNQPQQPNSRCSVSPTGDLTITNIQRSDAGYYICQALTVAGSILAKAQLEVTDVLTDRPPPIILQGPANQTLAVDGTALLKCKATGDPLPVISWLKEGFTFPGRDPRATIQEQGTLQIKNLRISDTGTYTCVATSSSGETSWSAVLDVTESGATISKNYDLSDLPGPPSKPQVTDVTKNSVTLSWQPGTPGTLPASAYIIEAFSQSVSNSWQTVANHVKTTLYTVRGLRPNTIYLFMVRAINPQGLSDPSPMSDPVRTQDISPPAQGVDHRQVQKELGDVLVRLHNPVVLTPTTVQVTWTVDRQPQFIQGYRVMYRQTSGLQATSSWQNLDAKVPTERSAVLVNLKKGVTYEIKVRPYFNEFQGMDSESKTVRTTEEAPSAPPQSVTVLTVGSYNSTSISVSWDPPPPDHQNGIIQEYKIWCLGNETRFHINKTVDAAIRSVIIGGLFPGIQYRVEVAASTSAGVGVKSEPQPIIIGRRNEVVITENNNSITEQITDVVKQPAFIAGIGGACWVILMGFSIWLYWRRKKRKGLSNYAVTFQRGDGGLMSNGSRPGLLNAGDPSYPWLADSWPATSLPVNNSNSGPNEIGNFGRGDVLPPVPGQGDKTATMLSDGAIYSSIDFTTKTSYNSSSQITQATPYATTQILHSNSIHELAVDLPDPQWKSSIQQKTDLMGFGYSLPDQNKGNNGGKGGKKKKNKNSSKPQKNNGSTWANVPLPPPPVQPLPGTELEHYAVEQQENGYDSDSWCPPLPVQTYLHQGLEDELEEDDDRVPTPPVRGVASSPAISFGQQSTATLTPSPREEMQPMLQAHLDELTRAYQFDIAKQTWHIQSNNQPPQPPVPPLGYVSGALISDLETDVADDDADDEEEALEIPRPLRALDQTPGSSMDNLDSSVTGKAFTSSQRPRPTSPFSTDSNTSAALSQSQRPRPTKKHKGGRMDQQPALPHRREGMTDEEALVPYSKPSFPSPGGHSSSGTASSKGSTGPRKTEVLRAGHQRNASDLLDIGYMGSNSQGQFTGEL
Method: The parental 93H2 antibody was highly ROBO2 specific, therefore affinity matured antibodies with single point neutralizing activity were screened by flow cytometry to ensure ROBO2 selectivity had been maintained. […] Binding of the antibodies was detected using a secondary fluorochrome conjugated anti-human IgG F(ab′)₂ antibody and samples were analyzed on a Fortessa cytometer (BD Biosciences). The fold ROBO2 selectivity was calculated as the geometric mean fluorescence intensity (Geo MFI) with ROBO2 cells/Geo MFI with ROBO1 cells. A fold change higher than 3 was considered to be ROBO2 specific (Table 2, Fold Selectivity). Some affinity matured clones had increased ROBO1 reactivity, for example Abcs 55, CTI-R2-10 and CTIR2-13.
Table 2 is a summary of assays used to screen antibodies against ROBO1 and/or ROBO2 to identify an antibody that specifically recognized ROBO2 but not ROBO1 with high affinity. […] Full dose curves were performed in the same assay for select antibodies. Recognition of native, surface expressed protein and ROBO2 selectivity was evaluated by flow cytometry. […] Anything with a value of greater than 3 was deemed to be selective for ROBO2. Outcomes of the various screening assays conducted for each antibody are highlighted in the final column.

[3] = biological target: T2, Human ROBO2 overexpressed on HEK293 …; test: flow cytometry, Geo MFI ROBO2/ROBO1 HEK293 cells, 0.1 µg/ml
Method: Binding of the antibodies was detected using a secondary fluorochrome conjugated anti-human IgG F(ab′)₂ antibody and samples were analyzed on a Fortessa cytometer (BD Biosciences). The fold ROBO2 selectivity was calculated as the geometric mean fluorescence intensity (Geo MFI) with ROBO2 cells/Geo MFI with ROBO1 cells. A fold change higher than 3 was considered to be ROBO2 specific (Table 2, Fold Selectivity). Some affinity matured clones had increased ROBO1 reactivity, for example Abcs 55, CTI-R2-10 and CTIR2-13.
HTRF assays were run with 5 nM d2-labeled SLIT2-N and antibodies were added at 1 nM. […] Antibodies derived from chain (Abcs series) or CDR shuffling (CTIR-2 series) were evaluated in 11-point, 5-fold dilution series with a top concentration of 1500 nM, N.T. = not tested; ^cFold selectivity was calculated as Geometric Mean Fluorescent Intensity (Geo MFI) of ROBO2/Geo MFI of ROBO1 binding. […] Outcomes: results are listed in order of assays listed in the table (left to right), I.A. = Improved Affinity

[4] = biological target: T1, Terbium (Tb) labeled-SNAP tagged ROBO2 …; test: HTRF competition, competitor d2-SLIT2-N, ROBO2 HEK293 cells
Summary of the method: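 HEK293 cells expressing Tb-labeled SNAP-ROBO2 were incubated 1 hour with 5 nM d2-SLIT2-N plus antibody, read as the 665/620 nm HTRF ratio. Controls were no antibody (maximal) and cells alone (minimal). Screening used 1 nM antibody; IC₅₀ came from 11-point, 5-fold dilutions starting at 1500 nM.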

Human ROBO2 Ig1-Ig2-His = biological target: T3, Human ROBO2 Ig1-Ig2-His (human, UniProt Q9HCK4 31-220); test: Octet (BLI), relative Kd
T3 construct: the His tag is named only in the SPR paragraphs; the Octet and ELISA paragraphs print 'ROBO2 Ig1-Ig2' without a tag; also called ROBO2 Ig1-2; Human ROBO2 Ig 1,2
T3 sequence: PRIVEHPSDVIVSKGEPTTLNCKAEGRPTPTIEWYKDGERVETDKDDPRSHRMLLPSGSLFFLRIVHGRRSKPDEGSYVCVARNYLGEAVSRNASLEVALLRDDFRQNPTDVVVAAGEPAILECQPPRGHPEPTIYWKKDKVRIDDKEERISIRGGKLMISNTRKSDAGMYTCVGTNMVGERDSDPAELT

B1: Ab1 (antibody, human IgG1, kappa, V domains shown)
VH: EVQLVQSGAEVKKPGASVKVSCKASGYTFTGYDMHWVRQAPGQGLEWMGWINPNSGATNFPQKFQGRVTMTRDTSITTAYMDLSRLRSDDTAVYYCARESGDDAFDIWGQGTMVTVSS
VL: DIVMTQSPSSLSASVGDRVTITCRASQKISSYLNWYQQKPGKAPKLLIYAASSLQSGVPSRFSGSGSGTDFTLTISSLQPEDFATYYCQQSYSTSFGGGTKVEIKR
notes: full-length human IgG
HTRF Ratio [1]: 14000 | binding result [2]: no binding (tested: 0.1 µg/ml)

B2: Ab17 (antibody, human IgG1, kappa, V domains shown)
VH: EVQLVQSGAEVKKPGASVKVSCKASGYTFTGYDMHWVRQAPGQGLEWMGWINPNSGATNFPQKFQGRVTMTRDTSITTAYMDLSRLRSDDTAVYYCARESGDDAFDIWGQGTMVTVSS
VL: DIVMTQSPSSLSASVGDRVTITCRASQSISSYLNWYQQKPGKAPKLLIYAASSLQEGVPSRFSGSGSGTDFTLTISSLQPEDFATYYCQQSYSTSFGGGTKVEIKR
notes: full-length human IgG
HTRF Ratio [1]: 13500 | binding result [2]: no binding (tested: 0.1 µg/ml)

B3: Ab123 (antibody, human IgG1, kappa, V domains shown)
VH: EVQLVQSGAEVKKPGASVKVSCKASGYTFTGYYMHWVRQAPGQGLEWMGWINPNSGATNFPQKFQGRVTMTRDTSITTAYMDLSRLRSDDTAVYYCARESGDDAFDIWGQGTMVTVSS
VL: DIVMTQSPSSLSASVGDRVTITCRASQSISSYLNWYQQKPGKAPKLLIYAASSLQSGVPSRFSGSGSGTDFTLTISSLQPEDFATYYCQQSVGLFFGGGTKVEIKR
notes: full-length human IgG
HTRF Ratio [1]: 7710 | Fold Selectivity for ROBO2/ROBO1 [3]: 80.5 fold | IC50 [4]: 260 pM | Kd (Human ROBO2 Ig1-Ig2-His): 1400 pM

B4: Ab13 (antibody, human IgG1, kappa, V domains shown)
VH: EVQLVQSGAEVKKPGASVKVSCKASGYTFTGYDMHWVRQAPGQGLEWMGWINPNSGATNFPQKFQGRVTMTRDTSITTAYMDLSRLRSDDTAVYYCARESGDDAFDIWGQGTMVTVSS
VL: DIVMTQSPSSLSASVGDRVTITCRASQSISSYLNWYQQKPGKAPKLLIYAASSLQDGVPSRFSGSGSGTDFTLTISSLQPEDFATYYCQQSYSTSFGGGTKVEIKR
notes: full-length human IgG
HTRF Ratio [1]: 13800 | binding result [2]: no binding (tested: 0.1 µg/ml)

B5: Ab21 (antibody, human IgG1, kappa, V domains shown)
VH: EVQLVQSGAEVKKPGASVKVSCKASGYTFTGYDMHWVRQAPGQGLEWMGWINPNSGATNFPQKFQGRVTMTRDTSITTAYMDLSRLRSDDTAVYYCARESGDDAFDIWGQGTMVTVSS
VL: DIVMTQSPSSLSASVGDRVTITCRASQSISSYLNWYQQKPGKAPKLLIYAASSLQYGVPSRFSGSGSGTDFTLTISSLQPEDFATYYCQQSYSTSFGGGTKVEIKR
notes: full-length human IgG
HTRF Ratio [1]: 13100 | binding result [2]: no binding (tested: 0.1 µg/ml)

B6: Ab9 (antibody, human IgG1, kappa, V domains shown)
VH: EVQLVQSGAEVKKPGASVKVSCKASGYTFTGYDMHWVRQAPGQGLEWMGWINPNSGATNFPQKFQGRVTMTRDTSITTAYMDLSRLRSDDTAVYYCARESGDDAFDIWGQGTMVTVSS
VL: DIVMTQSPSSLSASVGDRVTITCRASQRISSYLNWYQQKPGKAPKLLIYAASSLQSGVPSRFSGSGSGTDFTLTISSLQPEDFATYYCQQSYSTSFGGGTKVEIKR
notes: full-length human IgG
HTRF Ratio [1]: 13600 | binding result [2]: no binding (tested: 0.1 µg/ml)

B7: Ab96 (antibody, human IgG1, kappa, V domains shown)
VH: EVQLVQSGAEVKKPGASVKVSCKASGYTFTGYYMHWVRQAPGQGLEWMGWINPKNGDTEFPQKFQGRVTMTRDTSITTAYMDLSRLRSDDTAVYYCARESGDDAFDIWGQGTMVTVSS
VL: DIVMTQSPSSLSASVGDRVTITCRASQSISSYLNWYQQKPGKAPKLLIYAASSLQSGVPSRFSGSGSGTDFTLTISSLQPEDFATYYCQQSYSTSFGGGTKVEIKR
notes: full-length human IgG
HTRF Ratio [1]: 3680 | Fold Selectivity for ROBO2/ROBO1 [3]: 35 fold | IC50 [4]: 166 pM | Kd (Human ROBO2 Ig1-Ig2-His): 1200 pM
